{"source": "patent US8716237B2", "about": "“Methods for the treatment or prevention of hemorrhagic conditions” (University of Rochester, priority 2007, dated 2014)", "molecules": {"B1": {"name": "rPAI-1: mouse recombinant plasminogen activator inhibitor-1, purchased from Calbiochem; Example 20 uses recombinant stable wild-type PAI-1 (protein, UniProt P22777 23-402, looked up)", "Plasminogen activator …": "TLPLRESHTAHQATDFGVKVFQQVVQASKDRNVVFSPYGVSSVLAMLQMTTAGKTRRQIQDAMGFKVNEKGTAHALRQLSKELMGPWNKNEISTADAIFVQRDLELVQGFMPHFFKLFQTMVKQVDFSEVERARFIINDWVERHTKGMINDLLAKGAVDELTRLVLVNALYFSGQWKTPFLEASTHQRLFHKSDGSTVSVPMMAQSNKFNYTEFTTPDGLEYDVVELPYQRDTLSMFIAAPFEKDVHLSALTNILDAELIRQWKGNMTRLPRLLILPKFSLETEVDLRGPLEKLGMPDMFSATLADFTSLSDQEQLSVAQALQKVRIEVNESGTVASSSTAFVISARMAPTEMVIDRSFLFVVRHNPTETILFMGQVMEP"}, "B2": {"name": "deubiquitinating enzyme CYLD (protein)", "chain": "MSSGLWSQEKVTSPYWEERIFYLLLQECSVTDKQTQKLLKVPKGSIGQYIQDRSVGHSRIPSAKGKKNQIGLKILEQPHAVLFVDEKDVVEINEKFTELLLAITNCEERFSLFKNRNRLSKGLQIDVGCPVKVQLRSGEEKFPGVVRFRGPLLAERTVSGIFFGVELLEEGRGQGFTDGVYQGKQLFQCDEDCGVFVALDKLELIEDDDTALESDYAGPGDTMQVELPPLEINSRVSLKVGETIESGTVIFCDVLPGKESLGYFVGVDMDNPIGNWDGRFDGVQLCSFACVESTILLHINDIIPALSESVTQERRPPKLAFMSRGVGDKGSSSHNKPKATGSTSDPGNRNRSELFYTLNGSSVDSQPQSKSKNTWYIDEVAEDPAKSLTEISTDFDRSSPPLQPPPVNSLTTENRFHSLPFSLTKMPNTNGSIGHSPLSLSAQSVMEELNTAPVQESPPLAMPPGNSHGLEVGSLAEVKENPPFYGVIRWIGQPPGLNEVLAGLELEDECAGCTDGTFRGTRYFTCALKKALFVKLKSCRPDSRFASLQPVSNQIERCNSLAFGGYLSEVVEENTPPKMEKEGLEIMIGKKKGIQGHYNSCYLDSTLFCLFAFSSVLDTVLLRPKEKNDVEYYSETQELLRTEIVNPLRIYGYVCATKIMKLRKILEKVEAASGFTSEEKDPEEFLNILFHHILRVEPLLKIRSAGQKVQDCYFYQIFMEKNEKVGVPTIQQLLEWSFINSNLKFAEAPSCLIIQMPRFGKDFKLFKKIFPSLELNITDLLEDTPRQCRICGGLAMYECRECYDDPDISAGKIKQFCKTCNTQVHLHPKRLNHKYNPVSLPKDLPDWDWRHGCIPCQNMELFAVLCIETSHYVAFVKYGKDDSAWLFFDSMADRDGGQNGFNIPQVTPCPEVGEYLKMSLEDLHSLDSRRIQGCARRLLCDAYMCMYQSPTMSLYK"}}, "key": {"[1]": {"system": "CYLD", "assay": "CYLD expression up-regulation by bacterial agonists for TLR2"}, "[2]": {"system": "Cyld−/− mice", "assay": "Survival of Cyld−/− mice inoculated with S. pneumoniae after pretreatment", "format": "in vivo, mouse", "conditions": "wedelolactone 10 mg/kg intraperitoneally 2 hours before S.p. inoculation", "description": "(§1) For S. pneumoniae-induced lethal infections in wild type, Cyld^−/−, Mkk3^−/−, and PAI-1^−/− mice, anaesthetized mice were intratracheally inoculated with live S. pneumoniae, S. pneumoniae wild type or pneumolysin mutant lysate, or pneumolysin (“PLY”), at a concentration of 5×10^7CFU per mouse for live bacteria and bacterial lysate and 200 ng/mouse for PLY in all experiments unless otherwise indicated, and saline was inoculated as control. The mice were monitored for lethality every 2 hours for the first 12 hours and every 12 hours for 5 days thereafter. To assess the effect of perturbing p38 MAPK signaling on S. pneumoniae-induced lethality in Cyld^−/− mice, Cyld^−/− mice were pretreated with the p38 inhibitor SB203580 (10 mg/kg, intraperitoneally in Cyld^−/− mice) 2 hours before S. pneumoniae inoculation, and mice were then intratracheally inoculated with S. pneumoniae. To determine the effect of administration of exogenous PAI-1 on S. pneumoniae-induced lethality, mice were intratracheally administered with mouse rPAI-1 (12.5 μg/mouse) or saline as control, followed by S. pneumoniae and PLY inoculation 1 day after PAI-1 administration. For PAI-1 neutralization in Cyld^−/− mice, Cyld^−/− mice were intraperitoneally injected with α-PAI-1 mAb (25 μg/mouse for histological analysis and 50 μg/mouse for lethality) 2 hours before S. pneumoniae inoculation. Mouse IgG was used as control. […] Lung tissues were then subjected to histological analysis and total mRNA and protein extraction. In all Examples, saline was used as a control unless otherwise specified.\nTo assess the effect of perturbing NF-κB signaling on S.p.-induced lethality in Cyld^−/− mice, Cyld^−/− mice were pretreated with the IKK inhibitor Wedelolactone (10 mg/kg, intraperitoneally) 2 hours before S.p. inoculation, and mice were then intratracheally inoculated with S.p.\n(§2) Differences in survival between wild-type, Cyld-deficient (“Cyld^−/−”), Mkk3-deficient (“Mkk3^−/−”), and PAI/−/−deficient (“PAI-1^−/−”) mice after saline, S. pneumoniae, S. pneumoniae lysate, and/or pneumolysin inoculation with or without SB203580, rPAI-1, or α-PAI-1 mAb were determined by Kaplan-Meier analysis. All tests were performed using SPSS14.0 software (SPSS Inc.). All in vivo survival rate data were evaluated by Log Lank test. All other in vivo and in vitro data were evaluated by Student t-test. Statistical significance was accepted at a value of p<0.05."}, "[3]": {"system": "wild type mice", "assay": "Pathological and histological analysis of lungs (alveolar hemorrhage) of wild type mice", "format": "in vivo, mouse", "conditions": "wild type mice inoculated with rPAI-1", "description": "For S. pneumoniae-induced lethal infections in wild type, Cyld^−/−, Mkk3^−/−, and PAI-1^−/− mice, anaesthetized mice were intratracheally inoculated with live S. pneumoniae, S. pneumoniae wild type or pneumolysin mutant lysate, or pneumolysin (“PLY”), at a concentration of 5×10^7CFU per mouse for live bacteria and bacterial lysate and 200 ng/mouse for PLY in all experiments unless otherwise indicated, and saline was inoculated as control. The mice were monitored for lethality every 2 hours for the first 12 hours and every 12 hours for 5 days thereafter. To assess the effect of perturbing p38 MAPK signaling on S. pneumoniae-induced lethality in Cyld^−/− mice, Cyld^−/− mice were pretreated with the p38 inhibitor SB203580 (10 mg/kg, intraperitoneally in Cyld^−/− mice) 2 hours before S. pneumoniae inoculation, and mice were then intratracheally inoculated with S. pneumoniae. […]\nFor histological analysis, dissected lungs were fixed with 10% buffered neutral formalin overnight with rocking followed by routine processing, embedded in paraffin, and sectioned at about 4 μm thickness. […] H&E-stained lung tissue slides were evaluated by light microscopy using Axiovert 40 CFL (Carl Zeiss), and images were recorded with an AxioCam MRC (Carl Zeiss)."}, "[4]": {"conditions": "mouse, in vivo, 0.6 mg/kg", "description": "The efficacy of intratracheal administration of rPAI-1 was evaluated by assessing the presence and function of recombinant PAI-1 in mice. It was first determined whether exogenous PAI-1 is evenly distributed in the lungs of mice after intratracheal inoculation of recombinant stable PAI-1. Recombinant stable wild-type PAI-1 was first labeled with fluorescent dyes using an Alexa Flour 488 protein-labeling kit (Molecular Probes, Eugene, Oreg.) (Herbein & Wright, “Enhanced Clearance of Surfactant Protein D During LPS-induced Acute Inflammation in Rat Lung,” Am. J. Physiol. Lung Cell. Mol. Physiol. 281:L268-L277 (2001), which is hereby incorporated by reference in its entirety). Alexa dyes were selected because their magnitude of fluorescence is constant from pH 4 to 10 and they have a low level of photobleaching compared with similar fluorescent dyes used for protein labeling. […]\nTo determine whether the exogenously inoculated rPAI-1 is also functional, the in vivo functional activity of intratracheally inoculated rPAI-1 was measured in lungs of mice using ELISA kits from Molecular Innovations. […]"}, "[5]": {"system": "Tlr4−/− mice", "assay": "Survival of Tlr4-deficient mice after pneumolysin inoculation with or without rPAI-1 pre-administration", "format": "in vivo", "conditions": "intratracheal PLY with mouse rPAI-1 pre-administration", "description": "as §2\nTo further determine whether exogenous rPAI-1 also reduces mortality rate in Tlr4^−/− mice, Tlr4^−/− mice were intratracheally inoculated with PLY with or without mouse rPAI-1 pre-administration, and viability was assessed."}, "[6]": {"system": "wild type mice", "assay": "Survival of wild type mice inoculated with S. pneumoniae D39 lysate or PLY after rPAI-1 pre-administration", "format": "in vivo, mouse", "conditions": "for mortality rate / lethality in mice inoculated with S. pneumoniae: rPAI-1 12.5 μg/mouse intratracheally 1 day before S. pneumoniae D39 lysate", "description": "as §1\nDifferences in survival between wild-type, Cyld-deficient (“Cyld^−/−”), Mkk3-deficient (“Mkk3^−/−”), and PAI/−/−deficient (“PAI-1^−/−”) mice after saline, S. pneumoniae, S. pneumoniae lysate, and/or pneumolysin inoculation with or without SB203580, rPAI-1, or α-PAI-1 mAb were determined by Kaplan-Meier analysis. All tests were performed using SPSS14.0 software (SPSS Inc.). All in vivo survival rate data were evaluated by Log Lank test. All other in vivo and in vitro data were evaluated by Student t-test. […]"}, "[7]": {"target": "T1, tumor necrosis factor receptor-associated factor 6, Q9Y4K3", "T1 chain": "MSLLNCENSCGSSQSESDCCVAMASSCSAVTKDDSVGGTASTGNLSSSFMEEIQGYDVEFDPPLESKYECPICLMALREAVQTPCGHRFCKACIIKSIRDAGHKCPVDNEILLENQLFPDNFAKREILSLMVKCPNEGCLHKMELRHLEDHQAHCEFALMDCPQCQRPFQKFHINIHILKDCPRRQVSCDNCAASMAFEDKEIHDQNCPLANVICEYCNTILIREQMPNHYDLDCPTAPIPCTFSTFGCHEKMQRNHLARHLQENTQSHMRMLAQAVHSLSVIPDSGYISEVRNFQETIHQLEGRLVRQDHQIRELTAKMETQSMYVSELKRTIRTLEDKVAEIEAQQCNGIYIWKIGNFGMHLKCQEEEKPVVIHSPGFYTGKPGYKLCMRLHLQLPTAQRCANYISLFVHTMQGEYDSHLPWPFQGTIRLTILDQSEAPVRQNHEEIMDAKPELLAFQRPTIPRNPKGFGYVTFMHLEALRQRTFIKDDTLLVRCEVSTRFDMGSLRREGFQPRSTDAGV"}, "[8]": {"target": "T2, TRAF7, Q6Q0C0", "T2 chain": "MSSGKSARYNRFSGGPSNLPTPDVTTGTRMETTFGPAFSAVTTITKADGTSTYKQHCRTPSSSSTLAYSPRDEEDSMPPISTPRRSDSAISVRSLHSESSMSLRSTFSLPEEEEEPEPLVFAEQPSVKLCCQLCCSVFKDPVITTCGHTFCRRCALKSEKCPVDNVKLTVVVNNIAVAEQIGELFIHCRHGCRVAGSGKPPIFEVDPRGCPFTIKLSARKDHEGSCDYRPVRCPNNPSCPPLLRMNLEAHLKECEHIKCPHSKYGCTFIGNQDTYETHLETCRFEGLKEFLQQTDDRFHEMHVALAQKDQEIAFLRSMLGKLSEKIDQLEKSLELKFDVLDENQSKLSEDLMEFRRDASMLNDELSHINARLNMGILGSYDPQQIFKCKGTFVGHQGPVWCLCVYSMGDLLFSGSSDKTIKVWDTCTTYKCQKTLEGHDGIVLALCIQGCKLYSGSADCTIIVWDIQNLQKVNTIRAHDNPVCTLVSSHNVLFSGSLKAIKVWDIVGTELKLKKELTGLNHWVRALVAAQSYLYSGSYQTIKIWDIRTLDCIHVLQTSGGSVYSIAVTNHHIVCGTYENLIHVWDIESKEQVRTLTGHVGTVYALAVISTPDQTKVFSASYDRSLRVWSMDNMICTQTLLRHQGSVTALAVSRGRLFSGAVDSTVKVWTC"}}}
{"molecule": "Pam3CSK4", "values": [{"measurement": "CYLD expression", "setting": "[1]", "result": "up-regulated"}]}
{"molecule": "peptidoglycan", "values": [{"measurement": "CYLD expression", "setting": "[1]", "result": "up-regulated"}]}
{"molecule": "COc1cc(O)c2c(c1)oc(=O)c1c3cc(O)c(O)cc3oc21", "note": "[Wedelolactone]", "values": [{"measurement": "survival rate", "setting": "[2]", "result": "did not greatly alter the survival rate"}]}
{"molecule": "MALP-2", "values": [{"measurement": "CYLD expression", "setting": "[1]", "result": "up-regulated"}]}
{"molecule": "B1", "values": [{"measurement": "PLY-induced alveolar hemorrhage", "setting": "[3]", "result": "prevented"}, {"measurement": "S. pneumoniae-induced alveolar (lung) hemorrhage", "setting": "[3]", "result": "prevented"}, {"measurement": "distribution of intratracheally inoculated rPAI-1 in the lungs", "setting": "[4]", "result": "widely distributed in the lungs"}, {"measurement": "protection from lethal PLY challenge (viability)", "setting": "[5]", "result": "fully protected mice from lethal challenge"}, {"measurement": "mortality rate / lethality in mice inoculated with S. pneumoniae", "setting": "[6]", "result": "greatly reduced the mortality rate"}, {"measurement": "mortality rate / lethality in mice inoculated with S. pneumoniae", "setting": "[6]; listed as recombinant PAI-1", "result": "protected mice from S.p.-induced lethality"}, {"measurement": "mortality rate in mice inoculated with PLY", "setting": "[6]; rPAI-1 12.5 μg/mouse intratracheally 1 day before pneumolysin", "result": "greatly reduced the mortality rate"}]}
{"molecule": "B2", "values": [{"measurement": "NTHi-induced inflammatory response", "setting": "[7]", "result": "CYLD inhibition of this inflammatory response was achieved via deubiquitinating TRAF6 and TRAF7"}, {"measurement": "ubiquitination of TRAF6", "setting": "[7]", "result": "Overexpression of WT CYLD reduced, whereas siRNA knock-down of CYLD enhanced, the ubiquitination of TRAF6 and TRAF7"}, {"measurement": "NTHi-induced inflammatory response", "setting": "[8]", "result": "CYLD inhibition of this inflammatory response was achieved via deubiquitinating TRAF6 and TRAF7"}, {"measurement": "ubiquitination of TRAF7", "setting": "[8]", "result": "Overexpression of WT CYLD reduced, whereas siRNA knock-down of CYLD enhanced, the ubiquitination of TRAF6 and TRAF7"}]}
